This note sets out measurements from patent US20260139030A1.

The target in the assay is TNFα (Examples 10 and 11). The assay can be described thus: cell-based or functional assay.

For “TNFR2-Fc-Dectin2 chimeric protein (Examples 10 and 11) (Fc fusion; the values are: fold reduction in SEAP activity)”, the SEAP activity (NFκB/AP-1 reporter) in HEK-Blue Dectin2 cells, reduction against TNFα plus irrelevant protein was more than 20 fold.

In the case of “TNFR2-Fc-Clec7a chimeric protein (Examples 10 and 11) (Fc fusion; the values are: fold reduction in SEAP activity)”, the SEAP activity (NFκB/AP-1 reporter) in HEK-Blue Dectin2 cells, reduction against TNFα plus irrelevant protein is 4 fold.
